Columns and labels:
[1] = target: T1, transferrin (human, UniProt P02787 20-698); assay: SPR
[2] = target: T1, transferrin; assay: native gel or EMSA

T1 sequence (P02787 20-698): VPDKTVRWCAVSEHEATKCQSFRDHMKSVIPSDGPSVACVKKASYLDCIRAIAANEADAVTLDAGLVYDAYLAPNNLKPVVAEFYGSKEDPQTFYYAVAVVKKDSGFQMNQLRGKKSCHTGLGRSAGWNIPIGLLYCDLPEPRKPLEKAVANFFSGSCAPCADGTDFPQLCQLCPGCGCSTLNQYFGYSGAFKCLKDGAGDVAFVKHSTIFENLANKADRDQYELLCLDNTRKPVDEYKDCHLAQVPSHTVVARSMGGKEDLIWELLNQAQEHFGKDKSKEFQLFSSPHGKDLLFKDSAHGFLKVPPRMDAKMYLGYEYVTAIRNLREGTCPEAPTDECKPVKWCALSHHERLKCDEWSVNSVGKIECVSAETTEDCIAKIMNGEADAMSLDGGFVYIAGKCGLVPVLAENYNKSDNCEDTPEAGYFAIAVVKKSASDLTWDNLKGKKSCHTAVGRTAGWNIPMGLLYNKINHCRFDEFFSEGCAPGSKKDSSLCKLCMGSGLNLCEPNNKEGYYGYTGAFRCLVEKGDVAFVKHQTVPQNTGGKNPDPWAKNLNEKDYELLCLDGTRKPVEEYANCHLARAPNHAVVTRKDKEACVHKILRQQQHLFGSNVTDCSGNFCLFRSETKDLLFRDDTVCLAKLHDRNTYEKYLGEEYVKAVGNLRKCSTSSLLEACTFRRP

For “CD14 (SEA518Mu-48T, Uscn) (from UniProt P08571 20-345) (natural protein)”, the Kd [1] was 14 nM, the koff [1] was 0.00033 s⁻¹ and the kon [1] was 24000 M⁻¹ s⁻¹.

ELDDEDFRCVCNFSEPQPDWSEAFQCVSAVEVEIHAGGLN [LPS binding region of CD14 N-terminus (CD14N)]: binds [1].

B1: human CD14 (natural protein, UniProt P08571 20-345, looked up)
chain: TTPEPCELDDEDFRCVCNFSEPQPDWSEAFQCVSAVEVEIHAGGLNLEPFLKRVDADADPRQYADTVKALRVRRLTVGAAQVPAQLLVGALRVLAYSRLKELTLEDLKITGTMPPLPLEATGLALSSLRLRNVSWATGRSWLAELQQWLKPGLKVLSIAQAHSPAFSCEQVRAFPALTSLDLSDNPGLGERGLMAALCPHKFPAIQNLALRNTGMETPTGVCAALAAAGVQPHSLDLSHNSLRATVNPSAPRCMWSSALNSLNLSFAGLEQVPKGLPAKLRVLDLSCNRLNRAPQPDELPEVDNLTLDGNPFLVPGTALPHEGSMN
B1: binds [2].

— publication doi:10.1101/2020.03.02.972281 (bioRxiv, 2020)
